Target: p11-AnxA2 peptide cassette (UniProt P60903)
Test: crystal structure

stoichiometry N: 2
Substance: p11-AnxA2 peptide cassette (from UniProt P60903 1-97)

From paper PMC3633087
